Experimental findings from PMC12102759 are described below.

First the molecules themselves.
B1: TET3 peptide 460-475 (Methylcytosine dioxygenase TET3), 16-mer library wild type / NSP3 SUD-M (ORF1ab Nsp3c SUD-M, residues 1356-1493) (parent)
chain 1: MAELEQLLGSASDYIQ
chain 2: LPSIISNEKQEILGTVSWNLREMLAHAEETRKLMPVCVETKAIVSTIQRKYKGIKIQEGVVDYGARFYFYTSKTTVASLINTLNDLNETLVTMPLGYVTHGLNLEEAARYMRSLKVPATVSVSSPDAVTAYNGYLTSS
B2: NEK9 peptide 738-753 (Serine/threonine-protein kinase Nek9), 16-mer library wild type / NSP9 (ORF1ab Nsp9, residues 4141-4253) (parent)
chain 1: SGLSIGTVFQSSSPGG
chain 2: NNELSPVALRQMSCAAGTTQTACTDDNALAYYNTTKGGRFVLALLSDLQDLKWARFPKSDGTGTIYTELEPPCRFVTDTPKGPKVKYLYFIKGLNNLNRGMVLGSLAATVRLQ
B3: MBOAT1 peptide 17-32 (Lysophospholipid acyltransferase 1), 16-mer library wild type / NSP3 ADRP (ORF1ab Nsp3b ADRP, residues 1023-1192) (parent)
chain 1: STYLHPLSELLGIPLD
chain 2: not shown

The first test covers variants of B1. The settings on record: with NSP3 SUD-M (ORF1ab Nsp3c SUD-M, residues 1356-1493); bait immobilised on MaxiSorp plates (10 µg), library pre-cleared on GST, 2 h binding at 4 °C, five washes; one round per day, days 1-4; value from days 2 and 3; keep out of graded; scale: average fractional NGS count over selection days 2 and 3.
Turning to chain 1 MAELEQLLGSASDYGQ, the screen value turned out to be 0.

Consider chain 1 MAELEQLLGSASDYRQ, for which the screen value is 0.

Consider chain 1 MAELEQLLGSASDYMQ, for which the screen value was determined as 0.

Regarding chain 1 MAELEQLLGSASDTIQ, the screen value came to 0.

As for chain 1 MAELEQLLGSASDFIQ, the screen value was 0.

For chain 1 MHELEQLLGSASDYIQ, the screen value was 3.41e-05.

chain 1 MWELEQLLGSASDYIQ: the screen value amounted to 0.

On to chain 1 MTELEQLLGSASDYIQ, for which the screen value was determined as 0.

chain 1 MRELEQLLGSASDYIQ: the screen value came out at 0.

Consider chain 1 MAELEQLLGGASDYIQ, for which the screen value came out at 0.

Consider chain 1 TAELEQLLGSASDYIQ, for which the screen value was found to be 0.

Turning to chain 1 KAELEQLLGSASDYIQ, the screen value amounted to 0.

chain 1 RAELEQLLGSASDYIQ: the screen value was 0.

On to chain 1 HAELEQLLGSASDYIQ, for which the screen value stood at 0.

chain 1 GAELEQLLGSASDYIQ: the screen value is 0.

chain 1 MAELEQLLGSASGYIQ: the screen value came to 0.

chain 1 MAELEQLLGSASNYIQ: the screen value is 0.

Take chain 1 MAELEQLLGSASFYIQ: the screen value is 0.

As to chain 1 MAELEQLLGSASSYIQ, the screen value is 0.

chain 1 MAELEQLLGSASIYIQ: the screen value came out at 0.

For chain 1 MAELKQLLGSASDYIQ, the screen value was 0.

Turning to chain 1 MAELWQLLGSASDYIQ, the screen value turned out to be 0.

With chain 1 MAELDQLLGSASDYIQ, the screen value came out at 0.000325.

As to chain 1 MAELEQLSGSASDYIQ, the screen value was 0.

chain 1 MAELEQLIGSASDYIQ: the screen value was determined as 0.

For the variant chain 1 MAELEQLWGSASDYIQ, the screen value is 0.

Regarding chain 1 MAELEQLEGSASDYIQ, the screen value is 0.

In the case of chain 1 MATLEQLLGSASDYIQ, the screen value was 0.000884.

Take chain 1 MAQLEQLLGSASDYIQ: the screen value came out at 0.

Regarding chain 1 MAWLEQLLGSASDYIQ, the screen value came to 6.52e-05.

Regarding chain 1 MAMLEQLLGSASDYIQ, the screen value was determined as 0.

In the case of chain 1 MANLEQLLGSASDYIQ, the screen value amounted to 0.

For the variant chain 1 MAELEQLLGSNSDYIQ, the screen value is 0.

As for chain 1 MAELEQLLGSWSDYIQ, the screen value turned out to be 0.

As to chain 1 MAELEQLLGSAPDYIQ, the screen value was determined as 0.

Take chain 1 MAELEPLLGSASDYIQ: the screen value was 0.

As for chain 1 MAELEGLLGSASDYIQ, the screen value was 0.

With chain 1 MAELEYLLGSASDYIQ, the screen value was 0.

On to chain 1 MAELESLLGSASDYIQ, for which the screen value was found to be 0.

With chain 1 MAELEKLLGSASDYIQ, the screen value was found to be 0.

Regarding chain 1 MAELEQPLGSASDYIQ, the screen value turned out to be 0.

For chain 1 MAELEQTLGSASDYIQ, the screen value was 0.

As to chain 1 MAELEQNLGSASDYIQ, the screen value came to 0.

On to chain 1 MAELEQQLGSASDYIQ, for which the screen value came out at 0.

Regarding chain 1 MAEREQLLGSASDYIQ, the screen value amounted to 0.

As to chain 1 MAEYEQLLGSASDYIQ, the screen value is 0.

Take chain 1 MAEGEQLLGSASDYIQ: the screen value worked out at 0.

As to chain 1 MAEMEQLLGSASDYIQ, the screen value came to 0.

Another test covers variants of B2. The note with it: with NSP9 (ORF1ab Nsp9, residues 4141-4253); bait immobilised on MaxiSorp plates (10 µg), library pre-cleared on GST, 2 h binding at 4 °C, five washes; one round per day, days 1-4; value from days 2 and 3; keep out of graded; scale: average fractional NGS count over selection days 2 and 3.
Take chain 1 SGLSIGTVEQSSSPGG: the screen value is 0.000224.

chain 1 SGLSIGTVNQSSSPGG: the screen value was found to be 9.97e-05.

In the case of chain 1 SGLSIGTVVQSSSPGG, the screen value is 0.000209.

Regarding chain 1 SGLSIGTVKQSSSPGG, the screen value is 0.

Take chain 1 SGLSIGTVTQSSSPGG: the screen value came out at 0.

A further test covers variants of B3. The note with it: with NSP3 ADRP (ORF1ab Nsp3b ADRP, residues 1023-1192); bait immobilised on MaxiSorp plates (10 µg), library pre-cleared on GST, 2 h binding at 4 °C, five washes; one round per day, days 1-4; value from days 2 and 3; keep out of graded; scale: average fractional NGS count over selection days 2 and 3.
As for chain 1 P14R, the screen value came to 0.

For the variant chain 1 P14S, the screen value turned out to be 1.48e-05.

In the case of chain 1 P14E, the screen value was 7.55e-05.

In the case of chain 1 P14N, the screen value came out at 3.9e-05.

On to chain 1 P14Q, for which the screen value stood at 3.28e-05.

For the variant chain 1 P14M, the screen value is 0.00294.

Regarding chain 1 P14D, the screen value was found to be 0.000131.

chain 1 P14Y: the screen value came out at 1.08e-05.

As to chain 1 P14I, the screen value is 2.27e-05.

Turning to chain 1 P14F, the screen value was determined as 0.

In the case of chain 1 P14T, the screen value is 0.000186.

Turning to chain 1 P14G, the screen value was found to be 0.000153.

Consider chain 1 Y3H, for which the screen value is 3.26e-05.

With chain 1 Y3A, the screen value turned out to be 0.00112.

With chain 1 Y3W, the screen value was 0.

As to chain 1 Y3N, the screen value is 3.37e-05.

For chain 1 Y3S, the screen value is 2.54e-05.

Regarding chain 1 Y3L, the screen value was determined as 0.

In the case of chain 1 Y3D, the screen value amounted to 0.000184.

Turning to chain 1 Y3T, the screen value worked out at 3.8e-05.

With chain 1 Y3F, the screen value was found to be 0.

In the case of chain 1 Y3I, the screen value is 0.

As for chain 1 Y3E, the screen value worked out at 2.37e-05.

chain 1 Y3M: the screen value was determined as 0.000117.

For chain 1 Y3G, the screen value was determined as 0.000695.

With chain 1 E9G, the screen value is 0.

On to chain 1 E9M, for which the screen value was determined as 0.

For the variant chain 1 E9H, the screen value was 0.

With chain 1 E9V, the screen value is 0.

For chain 1 E9I, the screen value was determined as 0.

On to chain 1 E9S, for which the screen value amounted to 0.

Turning to chain 1 E9R, the screen value amounted to 0.

For the variant chain 1 E9N, the screen value is 0.

Regarding chain 1 E9L, the screen value was 0.

As to chain 1 E9T, the screen value was 0.

For the variant chain 1 E9Y, the screen value is 0.

For the variant chain 1 L7M, the screen value is 0.

Take chain 1 L7A: the screen value turned out to be 0.

As for chain 1 L7I, the screen value stood at 0.

Take chain 1 I13Y: the screen value was found to be 0.00165.

As to chain 1 I13R, the screen value stood at 1.08e-05.

With chain 1 I13A, the screen value came to 5.81e-05.

As for chain 1 I13D, the screen value amounted to 0.

As for chain 1 I13W, the screen value came to 0.00073.

On to chain 1 I13K, for which the screen value amounted to 0.

For the variant chain 1 I13T, the screen value is 3.35e-05.

Regarding chain 1 I13H, the screen value is 8.18e-05.

Consider chain 1 I13F, for which the screen value was 0.00253.

Take chain 1 I13V: the screen value came out at 3.18e-05.

In the case of chain 1 I13N, the screen value came out at 3.03e-05.

As to chain 1 I13L, the screen value came to 0.00192.

Turning to chain 1 I13Q, the screen value worked out at 0.00199.

For the variant chain 1 L11S, the screen value is 3.31e-05.

For the variant chain 1 L11A, the screen value was 8.96e-05.

With chain 1 L11Q, the screen value was determined as 0.

On to chain 1 L11G, for which the screen value was determined as 7.04e-06.

For the variant chain 1 L11W, the screen value came out at 0.0297.

Take chain 1 L11I: the screen value stood at 0.000109.

In the case of chain 1 L11Y, the screen value was 0.00171.

Regarding chain 1 L11R, the screen value is 4.2e-05.

chain 1 L11H: the screen value was found to be 0.

Take chain 1 L11M: the screen value is 1.65e-05.

chain 1 L11N: the screen value amounted to 2.27e-05.

As to chain 1 L4E, the screen value was found to be 0.

As for chain 1 L4F, the screen value was found to be 0.000245.

Take chain 1 L4D: the screen value stood at 0.

As for chain 1 L4V, the screen value was found to be 0.000192.

Regarding chain 1 L4Y, the screen value turned out to be 0.000191.

In the case of chain 1 L4R, the screen value worked out at 0.

chain 1 L4W: the screen value turned out to be 0.000705.

Turning to chain 1 L4N, the screen value amounted to 0.

As to chain 1 L4P, the screen value stood at 7.55e-05.

As to chain 1 L4A, the screen value was found to be 1.65e-05.
